According to PMC7855534:

Biological target: C-terminally strep-tagged wild-type GRK5 (human) (UniProt P34947)
Experiment: ITC

Chain of UniProt P34947 (P34947 whole entry): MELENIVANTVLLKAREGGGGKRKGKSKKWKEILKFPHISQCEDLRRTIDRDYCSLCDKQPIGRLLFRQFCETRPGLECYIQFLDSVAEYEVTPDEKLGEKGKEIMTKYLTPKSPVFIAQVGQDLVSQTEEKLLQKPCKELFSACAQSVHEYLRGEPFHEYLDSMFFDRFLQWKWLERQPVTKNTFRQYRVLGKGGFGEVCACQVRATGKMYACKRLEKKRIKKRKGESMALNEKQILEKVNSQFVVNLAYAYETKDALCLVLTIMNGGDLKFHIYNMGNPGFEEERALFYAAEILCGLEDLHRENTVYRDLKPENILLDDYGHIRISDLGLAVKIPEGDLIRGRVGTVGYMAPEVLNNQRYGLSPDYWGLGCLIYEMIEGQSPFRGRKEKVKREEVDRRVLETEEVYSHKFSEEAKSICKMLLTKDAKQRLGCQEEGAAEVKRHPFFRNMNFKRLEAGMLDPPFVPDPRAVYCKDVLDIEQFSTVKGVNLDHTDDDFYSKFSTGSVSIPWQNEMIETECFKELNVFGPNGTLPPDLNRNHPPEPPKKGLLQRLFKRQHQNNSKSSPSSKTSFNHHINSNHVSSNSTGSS

“wild-type rat calmodulin (from UniProt P0DP29 1-149) (natural protein; other documents disagree on this pair)” was tested, and the Kd was 278 nM and the dH was 4.3 kcal/mol.
